From US20230235013A1 (MABSOLVE, published 2023)
Positions count from the first letter of the chain named. Numbers in names are those of the source.

B1: anti-CD20 human IgG1 L234K/L235T/G236R (antibody)
heavy: QVQLQQPGAELVKPGASVKMSCKASGYTFTSYNMHWVKQTPGRGLEWIGAIYPGNGDTSYNQKFKGKATLTADKSSSTAYMQLSSLTSEDSAVYYCARSTYYGGDWYFNVWGAGTTVTVSSASTKGPSVFPLAPSSKSTSGGTAALGCLVKDYFPEPVTVSWNSGALTSGVHTFPAVLQSSGLYSLSSVVTVPSSSLGTQTYICNVNHKPSNTKVDKKVEPKSCDKTHTCPPCPAPEKTRGPSVFLFPPKPKDTLMISRTPEVTCVVVDVSHEDPEVKFNWYVDGVEVHNAKTKPREEQYNSTYRVVSVLTVLHQDWLNGKEYKCKVSNKALPAPIEKTISKAKGQPREPQVYTLPPSRDELTKNQVSLTCLVKGFYPSDIAVEWESNGQPENNYKTTPPVLDSDGSFFLYSKLTVDKSRWQQGNVFSCSVMHEALHNHYTQKSLSLSPGK
light: QIVLSQSPAILSASPGEKVTMTCRASSSVSYIHWFQQKPGSSPKPWIYATSNLASGVPVRFSGSGSGTSYSLTISRVEAEDAATYYCQQWTSNPPTFGGGTKLEIKRTVAAPSVFIFPPSDEQLKSGTASVVCLLNNFYPREAKVQWKVDNALQSGNSQESVTEQDSKDSTYSLSSTLTLSKADYEKHKVYACEVTHQGLSSPVTKSFNRGEC
notes: also called 1-90; 2-25; copies: 2 + 2
B2: anti-CD20 human IgG1 L234T/L235K/G236R (antibody)
heavy: B1 heavy with K238T, T239K
light: B1 light
notes: also called 2-58; copies: 2 + 2
B3: anti-CD20 human IgG1 L234R/L235K/G236R (antibody)
heavy: B1 heavy with K238R, T239K
light: B1 light
notes: also called 2-40; copies: 2 + 2
B4: anti-CD20 human IgG1 L234D/L235S/G236R (antibody)
heavy: B1 heavy with K238D, T239S
light: B1 light
notes: also called 1-29; 2-10; copies: 2 + 2
B5: anti-CD20 human IgG1 L234K/L235V/G236R (antibody)
heavy: B1 heavy with T239V
light: B1 light
notes: also called 1-91; 2-26; copies: 2 + 2
B6: anti-CD20 human IgG1 L234R/L235H/G236R (antibody)
heavy: B1 heavy with K238R, T239H
light: B1 light
notes: also called 2-38; copies: 2 + 2
B7: anti-CD20 human IgG1 L234T/L235S/G236R (antibody)
heavy: B1 heavy with K238T, T239S
light: B1 light
notes: also called 2-62; copies: 2 + 2
B8: anti-CD20 human IgG1 L234Q/L235A/G236R (antibody)
heavy: not shown
light: B1 light
notes: also called 2-27; copies: 2 + 2
B9: anti-CD20 human IgG1 L234S/L235G/G236R (antibody)
heavy: B1 heavy with K238S, T239G
light: B1 light
notes: also called 1-140; 2-47; copies: 2 + 2
B10: anti-CD20 human IgG1 L234R/L235I/G236R (antibody)
heavy: B1 heavy with K238R, T239I
light: B1 light
notes: also called 2-39; copies: 2 + 2
B11: anti-CD20 human IgG1 L234R/L235D/G236R (antibody)
heavy: B1 heavy with K238R, T239D
light: B1 light
notes: copies: 2 + 2
B12: anti-CD20 human IgG1 L234A/L235S/G236R (antibody)
heavy: not shown
light: B1 light
notes: also called 1-14; 2-4; copies: 2 + 2

molecular target: T1, Histidine-tagged recombinant human FcγRI (CD64) (human, UniProt P12314 16-288); assay: SPR, culture supernatant, captured His-FcγRI;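 further: biacore T200 SPR at 25 °C, anti-His capture, supernatants of HEK293 cells expressing IgG1 Fc variants injected 1 min, reference-subtracted response read 55 s after injection start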
T1 construct: bought; also called Sino Biological Cat. No. 12056-H08H

Row | Mean binding response | Binder
1 | 15.8 RU | B1
2 | 6.7 RU | B2
3 | 19.2 RU | B3
4 | 26.3 RU | B4
5 | 12.8 RU | B5
6 | 14.3 RU | B6
7 | 25.4 RU | B7
8 | 13.4 RU | B8
9 | 11.2 RU | B9
10 | 10.7 RU | B10
11 | 11.1 RU | B11
12 | 32.1 RU | B12
